Assay results reported in patent US20250206837A1 (ELIXIRON IMMUNOTHERAPEUTICS HONG KONG, published 2025).
Changes are numbered by the printed parent chain. Names may count otherwise. “And” between values parts separate entries of the source, which are not always exact repeats. Equal entries are not always repeated.

B1: 117 (antibody, V domains shown)
VH: EVQLVESGGGLVQPGGSLRLSCAASGFTISSFGIHWVRQAPGKGLEWVAWIAPYGGYTYYADSVKGRFTISADTSKNTAYLQMNSLRAEDTAVYYCARSFFGYFDYWGQGTLVTVSS
VL: DIQMTQSPSSLSASVGDRVTITCRASQDVSNWVAWYQQKPGKAPKLLISYATSLYSGVPSRFSGSGSGTDFTLTISSLQPEDFATYYCQQHSNAPLTFGQGTKVEIKR
notes: Full-length IgG, human kappa
B2: 117_30DE (antibody, V domains shown)
VH: B1 VH with S30D, Y57E
VL: B1 VL
notes: full-length IgG, human kappa
B3: 117_57EE (antibody, V domains shown)
VH: B1 VH with Y57E, T58E
VL: B1 VL
notes: full-length IgG, human kappa
B4: 117_30D (antibody, V domains shown)
VH: B1 VH with S30D
VL: B1 VL
notes: full-length IgG, human kappa
B5: 117_31A (antibody, V domains shown)
VH: B1 VH with S31A
VL: B1 VL
notes: full-length IgG, human kappa
B6: 117_28A (antibody, V domains shown)
VH: B1 VH with T28A
VL: B1 VL
notes: full-length IgG, human kappa
B7: 117_28D (antibody, V domains shown)
VH: B1 VH with T28D
VL: B1 VL
notes: full-length IgG, human kappa
B8: 117_30A (antibody, V domains shown)
VH: B1 VH with S30A
VL: B1 VL
notes: full-length IgG, human kappa
B9: 117_32D (antibody, V domains shown)
VH: B1 VH with F32D
VL: B1 VL
notes: full-length IgG, human kappa
B10: 117_31D (antibody, V domains shown)
VH: B1 VH with S31D
VL: B1 VL
notes: full-length IgG, human kappa
B11: 117_57DE (antibody, V domains shown)
VH: B1 VH with Y57D, T58E
VL: B1 VL
notes: full-length IgG, human kappa
B12: 117 (IgG1) (antibody)
heavy: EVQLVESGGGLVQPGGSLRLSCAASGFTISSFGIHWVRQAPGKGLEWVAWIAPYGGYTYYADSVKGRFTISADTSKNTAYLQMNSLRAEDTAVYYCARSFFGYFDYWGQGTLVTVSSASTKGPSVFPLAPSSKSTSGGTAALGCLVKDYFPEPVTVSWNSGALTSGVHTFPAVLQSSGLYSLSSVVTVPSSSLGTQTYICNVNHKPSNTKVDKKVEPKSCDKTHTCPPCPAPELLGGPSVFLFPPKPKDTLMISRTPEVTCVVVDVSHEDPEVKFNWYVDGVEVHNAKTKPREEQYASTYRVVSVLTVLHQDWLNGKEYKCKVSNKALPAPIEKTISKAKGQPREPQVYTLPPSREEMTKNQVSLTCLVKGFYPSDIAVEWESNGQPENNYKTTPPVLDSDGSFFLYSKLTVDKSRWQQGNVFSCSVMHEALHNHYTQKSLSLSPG
light: DIQMTQSPSSLSASVGDRVTITCRASQDVSNWVAWYQQKPGKAPKLLISYATSLYSGVPSRFSGSGSGTDFTLTISSLQPEDFATYYCQQHSNAPLTFGQGTKVEIKRTVAAPSVFIFPPSDEQLKSGTASVVCLLNNFYPREAKVQWKVDNALQSGNSQESVTEQDSKDSTYSLSSTLTLSKADYEKHKVYACEVTHQGLSSPVTKSFNRGEC
notes: Human IgG1-N297A, kappa
B13: 117 (IgG4) (antibody)
heavy: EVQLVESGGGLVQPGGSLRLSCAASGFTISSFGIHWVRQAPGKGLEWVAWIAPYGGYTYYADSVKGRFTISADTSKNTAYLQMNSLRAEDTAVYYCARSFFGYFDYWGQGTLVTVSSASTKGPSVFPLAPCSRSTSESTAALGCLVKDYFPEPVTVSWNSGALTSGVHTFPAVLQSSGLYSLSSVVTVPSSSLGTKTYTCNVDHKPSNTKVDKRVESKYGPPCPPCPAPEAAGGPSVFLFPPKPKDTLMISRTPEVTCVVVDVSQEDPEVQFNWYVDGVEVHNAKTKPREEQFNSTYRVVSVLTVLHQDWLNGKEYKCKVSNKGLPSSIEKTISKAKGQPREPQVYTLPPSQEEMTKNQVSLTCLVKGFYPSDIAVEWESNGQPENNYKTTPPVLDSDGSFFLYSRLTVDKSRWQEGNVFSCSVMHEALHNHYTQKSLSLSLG
light: B12 light
notes: Human IgG4-S228P/F234A/L235A, kappa
B14: 117_31A (IgG4) (antibody)
heavy: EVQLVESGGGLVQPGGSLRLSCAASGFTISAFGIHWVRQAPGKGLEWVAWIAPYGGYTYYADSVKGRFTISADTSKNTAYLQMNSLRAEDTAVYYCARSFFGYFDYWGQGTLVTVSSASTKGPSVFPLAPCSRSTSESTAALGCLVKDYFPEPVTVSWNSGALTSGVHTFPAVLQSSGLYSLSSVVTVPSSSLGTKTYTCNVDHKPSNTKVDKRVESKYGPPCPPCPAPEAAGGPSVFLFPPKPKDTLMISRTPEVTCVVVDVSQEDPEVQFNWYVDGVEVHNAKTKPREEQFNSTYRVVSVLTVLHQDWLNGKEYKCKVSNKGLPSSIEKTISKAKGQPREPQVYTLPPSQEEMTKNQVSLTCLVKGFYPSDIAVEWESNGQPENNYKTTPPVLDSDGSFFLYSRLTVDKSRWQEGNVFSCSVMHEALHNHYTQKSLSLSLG
light: B12 light
B15: 117_57D (IgG1) (antibody)
heavy: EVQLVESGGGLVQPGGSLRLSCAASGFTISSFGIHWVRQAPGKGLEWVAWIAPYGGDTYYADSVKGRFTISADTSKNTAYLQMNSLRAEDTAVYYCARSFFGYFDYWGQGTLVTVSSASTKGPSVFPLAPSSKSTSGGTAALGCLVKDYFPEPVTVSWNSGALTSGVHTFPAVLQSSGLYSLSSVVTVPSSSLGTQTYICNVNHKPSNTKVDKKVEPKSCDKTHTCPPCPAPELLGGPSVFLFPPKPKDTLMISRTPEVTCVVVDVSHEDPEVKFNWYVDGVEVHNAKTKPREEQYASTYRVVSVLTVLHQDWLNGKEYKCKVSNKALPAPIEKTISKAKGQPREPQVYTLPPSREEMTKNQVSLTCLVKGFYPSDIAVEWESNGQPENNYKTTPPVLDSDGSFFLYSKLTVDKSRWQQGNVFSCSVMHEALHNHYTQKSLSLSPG
light: B12 light
B16: 117_31A (IgG1) (antibody)
heavy: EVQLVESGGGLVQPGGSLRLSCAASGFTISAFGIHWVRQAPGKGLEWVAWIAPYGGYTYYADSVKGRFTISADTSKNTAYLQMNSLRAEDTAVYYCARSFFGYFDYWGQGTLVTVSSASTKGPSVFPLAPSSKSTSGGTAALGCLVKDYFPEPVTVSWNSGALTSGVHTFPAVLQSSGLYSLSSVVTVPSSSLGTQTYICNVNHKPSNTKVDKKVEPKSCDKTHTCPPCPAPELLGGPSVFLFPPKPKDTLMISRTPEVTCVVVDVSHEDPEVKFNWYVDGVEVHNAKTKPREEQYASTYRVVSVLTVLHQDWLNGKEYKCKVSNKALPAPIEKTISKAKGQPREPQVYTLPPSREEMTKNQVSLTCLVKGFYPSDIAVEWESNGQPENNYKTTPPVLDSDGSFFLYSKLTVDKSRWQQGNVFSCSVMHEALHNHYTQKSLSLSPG
light: B12 light
B17: 117_57E (IgG1) (antibody)
heavy: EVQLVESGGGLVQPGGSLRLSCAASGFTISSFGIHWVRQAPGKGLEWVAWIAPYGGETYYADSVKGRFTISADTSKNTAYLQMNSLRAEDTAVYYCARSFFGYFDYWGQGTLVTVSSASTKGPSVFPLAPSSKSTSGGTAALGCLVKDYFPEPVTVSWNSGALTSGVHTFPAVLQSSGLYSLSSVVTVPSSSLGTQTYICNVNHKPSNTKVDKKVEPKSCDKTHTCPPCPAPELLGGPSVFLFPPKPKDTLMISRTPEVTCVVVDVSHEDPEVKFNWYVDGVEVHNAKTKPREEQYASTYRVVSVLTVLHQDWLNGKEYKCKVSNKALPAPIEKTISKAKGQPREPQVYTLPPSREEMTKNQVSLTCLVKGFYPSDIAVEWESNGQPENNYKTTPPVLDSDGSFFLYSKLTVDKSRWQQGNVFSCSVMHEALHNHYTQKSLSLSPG
light: B12 light
B18: 117_57EE (IgG1) (antibody, V domains shown)
VH: B1 VH with Y57E, T58E
VL: B1 VL
B19: 117_30DA (IgG4) (antibody, V domains shown)
VH: B1 VH with S30D, S31A
VL: B1 VL
notes: Human IgG4-S228P-FALA, kappa
B20: 117_57E (IgG4) (antibody)
heavy: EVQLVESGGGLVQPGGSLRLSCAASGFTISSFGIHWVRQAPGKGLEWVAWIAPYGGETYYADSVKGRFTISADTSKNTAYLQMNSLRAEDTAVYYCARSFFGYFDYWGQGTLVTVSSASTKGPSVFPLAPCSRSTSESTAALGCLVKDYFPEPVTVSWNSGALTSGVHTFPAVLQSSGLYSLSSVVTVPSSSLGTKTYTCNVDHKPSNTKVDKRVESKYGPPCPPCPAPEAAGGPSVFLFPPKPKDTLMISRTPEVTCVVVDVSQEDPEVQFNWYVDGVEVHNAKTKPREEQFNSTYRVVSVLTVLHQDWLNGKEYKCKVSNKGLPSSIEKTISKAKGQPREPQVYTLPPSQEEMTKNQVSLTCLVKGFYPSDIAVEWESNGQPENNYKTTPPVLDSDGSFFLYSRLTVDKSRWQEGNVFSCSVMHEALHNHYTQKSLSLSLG
light: B12 light
notes: Human IgG4-S228P-FALA, kappa
B21: 117_30AA (IgG4) (antibody, V domains shown)
VH: B1 VH with S30A, S31A
VL: B1 VL
notes: Human IgG4-S228P-FALA, kappa
B22: 117_DA57D (IgG4) (antibody, V domains shown)
VH: B1 VH with S30D, S31A, Y57D
VL: B1 VL
B23: 117_54E (IgG1) (antibody, V domains shown)
VH: B1 VH with Y54E
VL: B1 VL
B24: 117_DA57E (IgG4) (antibody, V domains shown)
VH: B1 VH with S30D, S31A, Y57E
VL: B1 VL
notes: Human IgG4-S228P-FALA, kappa
B25: 117_57D (IgG4) (antibody)
heavy: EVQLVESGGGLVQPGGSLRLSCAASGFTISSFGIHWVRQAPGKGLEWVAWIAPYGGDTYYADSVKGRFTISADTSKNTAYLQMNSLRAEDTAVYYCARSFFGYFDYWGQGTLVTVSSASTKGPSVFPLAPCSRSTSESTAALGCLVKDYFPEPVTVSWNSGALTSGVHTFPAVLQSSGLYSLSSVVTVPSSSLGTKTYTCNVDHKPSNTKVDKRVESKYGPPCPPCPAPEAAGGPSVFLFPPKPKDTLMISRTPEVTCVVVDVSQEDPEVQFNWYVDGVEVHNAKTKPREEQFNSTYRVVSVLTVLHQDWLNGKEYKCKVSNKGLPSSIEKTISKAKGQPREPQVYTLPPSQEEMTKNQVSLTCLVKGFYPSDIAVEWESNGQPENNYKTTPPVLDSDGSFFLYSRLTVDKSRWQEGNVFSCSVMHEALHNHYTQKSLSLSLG
light: B12 light
notes: Human IgG4-S228P-FALA, kappa
B26: 117_30DE (IgG4) (antibody, V domains shown)
VH: B1 VH with S30D, Y57E
VL: B1 VL
notes: Human IgG4-S228P-FALA, kappa

Biological target: T1, full-length human CD36-Flag overexpressed on stable F293 cells (human, UniProt P16671 2-472)
T1 sequence (P16671 2-472): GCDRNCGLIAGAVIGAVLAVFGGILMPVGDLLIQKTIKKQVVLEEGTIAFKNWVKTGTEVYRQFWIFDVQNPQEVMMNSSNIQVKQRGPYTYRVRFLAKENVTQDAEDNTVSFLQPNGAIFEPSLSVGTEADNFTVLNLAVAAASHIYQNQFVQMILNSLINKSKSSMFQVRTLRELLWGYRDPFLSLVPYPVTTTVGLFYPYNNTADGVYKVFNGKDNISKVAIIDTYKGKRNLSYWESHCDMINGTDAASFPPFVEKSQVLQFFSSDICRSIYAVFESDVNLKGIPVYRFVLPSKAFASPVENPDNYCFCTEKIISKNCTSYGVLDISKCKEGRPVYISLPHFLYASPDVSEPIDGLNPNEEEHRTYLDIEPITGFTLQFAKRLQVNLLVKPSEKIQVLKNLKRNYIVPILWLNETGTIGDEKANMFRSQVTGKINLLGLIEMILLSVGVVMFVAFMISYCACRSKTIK
Assay: cell-based or functional assay

| oxLDL uptake IC50 (nM), F293/hCD36 | Binder |
| --- | --- |
| 0.702 nM | B1 |
| 0.299 nM | B2 |
| 0.348 nM | B3 |

Biological target: T2, Recombinant His-tagged human CD36.ECD protein (Sino Biological) (human, UniProt P16671 30-439)
T2 construct: Bought protein; also called hCD36.ECD; hCD36; not shown: His tag
T2 sequence (P16671 30-439 limits assumed): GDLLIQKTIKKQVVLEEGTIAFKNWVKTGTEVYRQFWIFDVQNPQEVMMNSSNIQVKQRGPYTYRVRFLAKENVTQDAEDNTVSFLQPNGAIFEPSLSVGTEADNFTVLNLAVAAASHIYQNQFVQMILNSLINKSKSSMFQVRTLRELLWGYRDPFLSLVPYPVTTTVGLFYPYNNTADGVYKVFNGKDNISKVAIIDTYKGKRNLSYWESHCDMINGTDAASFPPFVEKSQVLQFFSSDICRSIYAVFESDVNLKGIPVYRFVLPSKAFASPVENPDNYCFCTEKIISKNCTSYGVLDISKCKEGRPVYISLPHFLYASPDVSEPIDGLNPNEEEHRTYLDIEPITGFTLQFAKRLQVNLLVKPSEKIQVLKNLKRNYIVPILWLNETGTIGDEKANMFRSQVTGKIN
Assay: ELISA, coated human CD36.ECD (FIG. 2B)
Experimental: ELISA materials and methods: Recombinant His-tagged human CD36.ECD protein or His-tagged mouse CD36.ECD protein (both from Sino Biological) was immobilized on 96 well microtiter plate at a concentration of 1 μg/mL in Coating Solution (SeraCare) overnight at 4° C. The wells were washed with wash solution (0.05% Tween20 in PBS) and blocked with 1% BSA in PBS. Serial dilutions of anti-CD36 antibodies were added to wells. After incubation at 37° C. for 1 h, the wells were washed with wash solution. Peroxidase-conjugated Goat anti-human kappa Light chain antibody (Sigma) was applied to each well at 37° C. for 1 h incubation. After washing, the wells were developed with TMB substrate for 5-10 min at room temperature and then stopped with 1 N HCl. Thereafter absorbance was measured at 450 nm and 650 nm. EC50 values were calculated through GraphPad Prism7.
The competitor anti-CD36 antibody ONA, which is derived from clone “ONA-0-v1” as disclosed in WO2021176424A1 in hIgG4-S228P-FALA format.

| EC50 | Binder |
| --- | --- |
| 0.141 nM | B4 |
| 0.0991 nM | B5 |
| 0.129 nM | B6 |
| 0.0735 nM | B7 |
| 0.0964 nM | B8 |
| 0.0276 nM | B9 |
| 0.0375 nM | B10 |

Biological target: T1, full-length human CD36-Flag …
Assay: flow cytometry, F293 cells overexpressing human CD36
Source text: (§1) After washing with FACS buffer (2% FBS in PBS), the cells were stained with anti-human IgG-Alexa Fluor 647 and analyzed by Attune NxT Flow Cytometer (Thermo Scientific).

| EC50 | Binder |
| --- | --- |
| 0.18 µg/mL and 0.123 µg/mL | B1 |
| 0.107 µg/mL | B2 |
| 0.093 µg/mL | B3 |
| 0.129 µg/mL | B11 |

Biological target: T3, mouse CD36-His overexpressed on stable F293 cells (mouse, UniProt Q08857 1-472)
T3 construct: Gene segment from Sino Biological; also called F293/mCD36; mCD36; not shown: His tag
T3 sequence (Q08857 whole entry): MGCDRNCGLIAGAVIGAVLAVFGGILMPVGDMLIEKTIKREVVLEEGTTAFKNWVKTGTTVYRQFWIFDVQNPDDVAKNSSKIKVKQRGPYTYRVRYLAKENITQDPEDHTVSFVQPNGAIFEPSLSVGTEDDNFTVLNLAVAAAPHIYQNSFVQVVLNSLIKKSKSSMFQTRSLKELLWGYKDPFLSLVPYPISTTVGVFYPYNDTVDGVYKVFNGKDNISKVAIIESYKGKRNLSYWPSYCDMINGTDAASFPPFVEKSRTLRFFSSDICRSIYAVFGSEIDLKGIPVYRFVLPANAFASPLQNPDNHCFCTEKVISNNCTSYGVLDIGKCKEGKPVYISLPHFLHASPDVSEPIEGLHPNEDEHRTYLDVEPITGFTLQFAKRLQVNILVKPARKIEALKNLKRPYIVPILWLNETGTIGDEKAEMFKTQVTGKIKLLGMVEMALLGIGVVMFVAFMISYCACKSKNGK
Assay: flow cytometry, F293 cells overexpressing mouse CD36
Source text: as §1

| EC50 | Binder |
| --- | --- |
| 0.46 µg/mL and 0.361 µg/mL | B1 |
| 0.342 µg/mL | B2 |
| 0.319 µg/mL | B3 |
| 0.447 µg/mL | B11 |

Biological target: T4, rhesus CD36-His overexpressed on stable F293 cells (rhesus, UniProt P16671 2-472 (human entry))
T4 construct: Gene segment from Sino Biological; also called F293/rhesusCD36; not shown: His tag
T4 sequence (P16671 other isoform, or with tags, fused parts or gaps): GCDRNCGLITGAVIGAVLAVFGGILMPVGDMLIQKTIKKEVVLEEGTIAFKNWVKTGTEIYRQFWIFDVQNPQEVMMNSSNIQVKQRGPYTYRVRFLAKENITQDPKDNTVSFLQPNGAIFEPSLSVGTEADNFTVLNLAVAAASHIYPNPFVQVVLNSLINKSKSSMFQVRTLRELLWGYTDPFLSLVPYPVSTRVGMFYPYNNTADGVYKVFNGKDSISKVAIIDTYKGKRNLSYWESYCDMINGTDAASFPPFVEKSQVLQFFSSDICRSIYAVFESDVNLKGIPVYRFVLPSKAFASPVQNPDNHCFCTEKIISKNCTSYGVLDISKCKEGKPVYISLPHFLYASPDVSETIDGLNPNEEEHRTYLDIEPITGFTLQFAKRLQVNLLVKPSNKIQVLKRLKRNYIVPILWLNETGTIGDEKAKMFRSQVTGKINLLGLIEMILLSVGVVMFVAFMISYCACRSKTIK
Assay: flow cytometry, F293 cells overexpressing rhesus CD36
Source text: as §1

| EC50 | Binder |
| --- | --- |
| 0.886 µg/mL and 0.582 µg/mL | B1 |
| 0.403 µg/mL | B2 |
| 0.407 µg/mL | B3 |
| 0.529 µg/mL | B11 |

Biological target: T2, Recombinant His-tagged human CD36.ECD …
Assay: BLI (Octet), antibody on AHC sensor, His-tagged hCD36.ECD in solution, 1:1 fit
Experimental: BLI assay materials and method: Kinetic rate constants, ka and kd, for binding of the anti-CD36 antibodies to human CD36 were measured by Bio-Layer Interferometry (BLI) (ForteBio Octet RED96). […] Rate constants were calculated by curve fitting analyses (1:1 Langmuir model) of binding response with a 2.5-minute association and 5-minute dissociation interaction time.

| Kd | koff | kon | Binder |
| --- | --- | --- | --- |
| 4.79 nM and 6.72 nM | 0.00213 s⁻¹ and 0.00235 s⁻¹ | 445000 M⁻¹ s⁻¹ and 350000 M⁻¹ s⁻¹ | B12 |
| 6.49 nM | 0.0025 s⁻¹ | 386000 M⁻¹ s⁻¹ | B13 |
| 4.32 nM | 0.00205 s⁻¹ | 475000 M⁻¹ s⁻¹ | B14 |
| 4.69 nM | 0.00175 s⁻¹ | 373000 M⁻¹ s⁻¹ | B15 |
| 4.05 nM | 0.00182 s⁻¹ | 449000 M⁻¹ s⁻¹ | B16 |
| 4.93 nM | 0.00182 s⁻¹ | 370000 M⁻¹ s⁻¹ | B17 |
| 4.27 nM | 0.00155 s⁻¹ | 364000 M⁻¹ s⁻¹ | B18 |
| 3.91 nM | 0.00133 s⁻¹ | 339000 M⁻¹ s⁻¹ | B19 |
| 5.28 nM | 0.00171 s⁻¹ | 325000 M⁻¹ s⁻¹ | B20 |
| 5.74 nM | 0.00282 s⁻¹ | 491000 M⁻¹ s⁻¹ | B21 |
| 2.64 nM | 0.000838 s⁻¹ | 317000 M⁻¹ s⁻¹ | B22 |
| 4.16 nM | 0.00407 s⁻¹ | 978000 M⁻¹ s⁻¹ | B23 |
| 2.52 nM | 0.000803 s⁻¹ | 319000 M⁻¹ s⁻¹ | B24 |
| 4.96 nM | 0.00167 s⁻¹ | 336000 M⁻¹ s⁻¹ | B25 |
| 3.09 nM | 0.000981 s⁻¹ | 317000 M⁻¹ s⁻¹ | B26 |
